# In publication PMC10484734, “TLK1-mediated RAD54 phosphorylation spatio-temporally regulates Homologous Recombination Repair” (Nucleic Acids Research, 2023):
# Changes are numbered by the printed parent chain.
# T1: RAD54-T41, T59D (RAD54-T2D), recombinant (human, UniProt Q92698 1-747, T41D | T59D)
# T1 construct: human RAD54 (RAD54L) with the phosphomimic changes T41D and T59D; also called NTD phosphomimic; source: recombinant, purified
# T1 sequence (looked up): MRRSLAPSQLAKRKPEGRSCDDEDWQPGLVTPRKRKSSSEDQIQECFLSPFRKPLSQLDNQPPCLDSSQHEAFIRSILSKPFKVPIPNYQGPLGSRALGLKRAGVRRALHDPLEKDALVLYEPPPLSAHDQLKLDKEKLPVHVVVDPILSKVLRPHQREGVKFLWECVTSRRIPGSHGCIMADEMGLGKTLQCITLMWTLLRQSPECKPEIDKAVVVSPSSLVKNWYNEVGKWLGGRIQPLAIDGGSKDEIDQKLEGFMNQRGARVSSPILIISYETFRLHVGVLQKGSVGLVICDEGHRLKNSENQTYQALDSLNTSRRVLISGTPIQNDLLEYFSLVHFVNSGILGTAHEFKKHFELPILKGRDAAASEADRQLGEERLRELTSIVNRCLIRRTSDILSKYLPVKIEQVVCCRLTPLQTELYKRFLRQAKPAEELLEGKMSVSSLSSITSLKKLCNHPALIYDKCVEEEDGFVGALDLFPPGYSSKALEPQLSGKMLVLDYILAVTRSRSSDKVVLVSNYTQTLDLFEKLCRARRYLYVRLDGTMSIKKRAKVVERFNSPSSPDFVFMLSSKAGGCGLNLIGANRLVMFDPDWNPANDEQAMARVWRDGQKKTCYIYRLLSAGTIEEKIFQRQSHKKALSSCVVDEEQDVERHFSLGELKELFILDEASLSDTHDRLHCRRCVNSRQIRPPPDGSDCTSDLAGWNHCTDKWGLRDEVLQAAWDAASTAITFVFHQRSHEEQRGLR
# T2: RAD54-T700D, recombinant (human, UniProt Q92698 1-747, T700D)
# T2 construct: human RAD54 (RAD54L) with the phosphomimic change T700D; also called purified RAD54-T700D; CTD mutant; source: recombinant, purified
# T2 sequence (looked up): T1 sequence (looked up) with D41T, D59T, T700D
# B1: recombinant human RAD51 (natural protein, UniProt Q06609 1-339, looked up)
# chain: MAMQMQLEANADTSVEEESFGPQPISRLEQCGINANDVKKLEEAGFHTVEAVAYAPKKELINIKGISEAKADKILAEAAKLVPMGFTTATEFHQRRSEIIQITTGSKELDKLLQGGIETGSITEMFGEFRTGKTQICHTLAVTCQLPIDRGGGEGKAMYIDTEGTFRPERLLAVAERYGLSGSDVLDNVAYARAFNTDHQTQLLYQASAMMVESRYALLIVDSATALYRTDYSGRGELSARQMHLARFLRMLLRLADEFGVAVVITNQVVAQVDGAAMFAADPKKPIGGNIIAHASTTRLYLRKGRGETRICKIYDSPCLPEAEAMFAINADGVGDAKD
# notes: human RAD51 recombinase; also called rc-RAD51
# Key:
# [1] = target: T1, RAD54-T41, T59D (RAD54-T2D), recombinant; assay: pull-down; purified RAD54 forms with RAD51; reactions eluted from beads, eluate and supernatant on silver-stained gels, quantified; which protein was held on the beads is not told; settings: both partners purified
# RAD54-T700D, recombinant = target: T2, RAD54-T700D, recombinant; assay: as above; settings: both partners purified
binder,measurement,setting,value
B1,binding result,[1],binds
same,binding result,"RAD54-T700D, recombinant",binds
